B7: Kif7-DM-GFP (1-543aa), dimeric Kif7 protein (domain or fragment, human, UniProt Q2M1P5 1-543, looked up)
chain: MGLEAQRLPGAEEAPVRVALRVRPLLPKELLHGHQSCLQVEPGLGRVTLGRDRHFGFHVVLAEDAGQEAVYQACVQPLLEAFFEGFNATVFAYGQTGSGKTYTMGEASVASLLEDEQGIVPRAMAEAFKLIDENDLLDCLVHVSYLEVYKEEFRDLLEVGTASRDIQLREDERGNVVLCGVKEVDVEGLDEVLSLLEMGNAARHTGATHLNHLSSRSHTVFTVTLEQRGRAPSRLPRPAPGQLLVSKFHFVDLAGSERVLKTGSTGERLKESIQINSSLLALGNVISALGDPQRRGSHIPYRDSKITRILKDSLGGNAKTVMIACVSPSSSDFDETLNTLNYASRAQNIRNRATVNWRPEAERPPEETASGARGPPRHRSETRIIHRGRRAPGPATASAAAAMRLGAECARYRACTDAAYSLLRELQAEPGLPGAAARKVRDWLCAVEGERSALSSASGPDSGIESASVEDQAAQGAGGRKEDEGAQQLLTLQNQVARLEEENRDFLAALEDAMEQYKLQSDRLREQQEEMVELRLRLELVRP
B8: Kif7-DM(E502A)-GFP (domain or fragment, human, UniProt Q2M1P5 1-543, looked up)
chain: MGLEAQRLPGAEEAPVRVALRVRPLLPKELLHGHQSCLQVEPGLGRVTLGRDRHFGFHVVLAEDAGQEAVYQACVQPLLEAFFEGFNATVFAYGQTGSGKTYTMGEASVASLLEDEQGIVPRAMAEAFKLIDENDLLDCLVHVSYLEVYKEEFRDLLEVGTASRDIQLREDERGNVVLCGVKEVDVEGLDEVLSLLEMGNAARHTGATHLNHLSSRSHTVFTVTLEQRGRAPSRLPRPAPGQLLVSKFHFVDLAGSERVLKTGSTGERLKESIQINSSLLALGNVISALGDPQRRGSHIPYRDSKITRILKDSLGGNAKTVMIACVSPSSSDFDETLNTLNYASRAQNIRNRATVNWRPEAERPPEETASGARGPPRHRSETRIIHRGRRAPGPATASAAAAMRLGAECARYRACTDAAYSLLRELQAEPGLPGAAARKVRDWLCAVEGERSALSSASGPDSGIESASVEDQAAQGAGGRKEDEGAQQLLTLQNQVARLEEANRDFLAALEDAMEQYKLQSDRLREQQEEMVELRLRLELVRP

Data set [1] addresses Kif27M-Kif7CC chimera (GFP) (human). Nature of the data set: SEC. A general note: Size exclusion chromatography separates by hydrodynamic size, large species first.
The target in data set [2] is Kif7M-Kif27CC chimera (GFP) (human). Nature of the data set: SEC.
The target of data set [3] is T1, Gli2-ZF, zinc-finger domain of Gli2 (recombinant) (human, UniProt P10070 418-604).
T1 sequence (looked up): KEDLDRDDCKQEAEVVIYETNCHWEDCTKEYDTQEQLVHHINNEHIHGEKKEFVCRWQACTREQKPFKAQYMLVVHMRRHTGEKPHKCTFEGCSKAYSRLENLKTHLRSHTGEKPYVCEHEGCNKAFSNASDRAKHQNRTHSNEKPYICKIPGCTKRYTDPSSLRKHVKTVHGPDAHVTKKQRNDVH
Nature of the data set: BLI. Background: Biolayer interferometry detects binding as a change in optical thickness at a sensor tip.

Data set [4] addresses B7. Nature of the data set: TIRF microscopy of proteins on immobilised microtubules.
The data set “Kif7-DM(E502A)-GFP” concerns the target B8. The data set is described as above.
A further data set deals with T2, Gli2-ZF-GFP (human, UniProt P10070 418-604).
T2 sequence (looked up): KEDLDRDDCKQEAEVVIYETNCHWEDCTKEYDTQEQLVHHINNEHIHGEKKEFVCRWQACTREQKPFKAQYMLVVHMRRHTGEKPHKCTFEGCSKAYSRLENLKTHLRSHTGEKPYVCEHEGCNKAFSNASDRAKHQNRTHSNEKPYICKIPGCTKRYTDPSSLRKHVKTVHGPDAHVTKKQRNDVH
Nature of the data set: SEC.

Data set [5] concerns the molecule itself. Nature of the data set: single molecule fluorescence intensity and photobleaching analysis.
The target in data set [6] is GDP-taxol stabilized microtubules from bovine tubulin (co-sedimentation) (bovine) (UniProt Q6B856). Kind of data set: co-sedimentation.
Data set [7] has the same target. Nature of the data set: co-sedimentation. The source holds these as a separate data set.
The data set “SEC” concerns the molecule itself. Nature of the data set: SEC.

Like-named read-outs stand apart in the source and are kept apart here.

In general, stoichiometry N refers to the number of molecules, sites or subunits per partner or assembly. With Kif27M-Kif7CC chimera (GFP), in data set [1], the stoichiometry N amounted to 2.
Kif7M-Kif27CC chimera (GFP): in [2], the stoichiometry N amounted to 2.

B1: GST-Kif7-SCC (481-543aa) (domain or fragment, human, UniProt Q2M1P5 481-543, looked up)
chain: KEDEGAQQLLTLQNQVARLEEENRDFLAALEDAMEQYKLQSDRLREQQEEMVELRLRLELVRP
What is called Kd is the equilibrium constant for the complex coming apart. Consider B1, for which the Kd in data set [3] stood at 0.069 ± 0.02 µM.

B2: Gli2-ZF-SNAP (domain or fragment, human, UniProt P10070 418-604, looked up)
chain: KEDLDRDDCKQEAEVVIYETNCHWEDCTKEYDTQEQLVHHINNEHIHGEKKEFVCRWQACTREQKPFKAQYMLVVHMRRHTGEKPHKCTFEGCSKAYSRLENLKTHLRSHTGEKPYVCEHEGCNKAFSNASDRAKHQNRTHSNEKPYICKIPGCTKRYTDPSSLRKHVKTVHGPDAHVTKKQRNDVH
modifications: Alexa-647 label (in the TIRF assays)
On to B2, for which the “fold above the background fluorescence of Gli alone on microtubules” value in data set [4] is around 3 fold. Besides, in the data set with Kif7-DM(E502A)-GFP, the binding result is “binds”.

B3: Kif7-CC-GFP (domain or fragment, human, UniProt Q2M1P5 460-600, looked up)
chain: PDSGIESASVEDQAAQGAGGRKEDEGAQQLLTLQNQVARLEEENRDFLAALEDAMEQYKLQSDRLREQQEEMVELRLRLELVRPGWGGPRLLNGLPPGSFVPRPHTAPLGGAHAHVLGMVPPACLPGDEVGSEQRGEQVTN
As for B3, the “stoichiometry N” value in the data set with Gli2-ZF-GFP is 2 Kif7-CC-GFP per Gli2-ZF-GFP.

B4: GFP-tagged GST-Kif7-CC (domain or fragment, human, UniProt Q2M1P5 460-600, looked up)
chain: PDSGIESASVEDQAAQGAGGRKEDEGAQQLLTLQNQVARLEEENRDFLAALEDAMEQYKLQSDRLREQQEEMVELRLRLELVRPGWGGPRLLNGLPPGSFVPRPHTAPLGGAHAHVLGMVPPACLPGDEVGSEQRGEQVTN
In the case of B4, the “stoichiometry N” value in [5] turned out to be 2.

B5: GST-Kif7-CC D505A (domain or fragment, human, UniProt Q2M1P5 460-600, looked up)
chain: PDSGIESASVEDQAAQGAGGRKEDEGAQQLLTLQNQVARLEEENRAFLAALEDAMEQYKLQSDRLREQQEEMVELRLRLELVRPGWGGPRLLNGLPPGSFVPRPHTAPLGGAHAHVLGMVPPACLPGDEVGSEQRGEQVTN
Turning to B5, in [3], the binding result is “binds”.

B6: GST-Kif7-CC (460-600aa) (domain or fragment, human, UniProt Q2M1P5 460-600, looked up)
chain: PDSGIESASVEDQAAQGAGGRKEDEGAQQLLTLQNQVARLEEENRDFLAALEDAMEQYKLQSDRLREQQEEMVELRLRLELVRPGWGGPRLLNGLPPGSFVPRPHTAPLGGAHAHVLGMVPPACLPGDEVGSEQRGEQVTN
In the case of B6, in data set [3], the equilibrium dissociation constant (Kd) is 0.048 ± 0.005 µM.
Consider B7, for which the Kd was 4.23 µM in data set [6] and 0.54 µM in data set [7]. The “stoichiometry N” value with Gli2-ZF-GFP came to 1 Kif7-DM per Gli2-ZF.
Consider B8, for which the “stoichiometry N” value in the data set “SEC” was 2.

The values are drawn from paper doi:10.1101/2021.09.30.462597 (bioRxiv, 2021).
